In PMC8815872, “A novel dual-labeled small peptide as a multimodal imaging agent for targeting wild-type EGFR in tumors” (PLoS ONE, 2022):
Like-named read-outs stand apart in the source and are kept apart here. Where a SMILES comes first, the peptide text is derived from it. The star is where a group is joined. 5TAMRA = CN(C)c1ccc2c(c1)Oc1cc(N(C)C)ccc1C21OC(=O)c2cc(C(=O)*)ccc21

What was measured:
[1] = tested on: NCI-H460 cells (wtEGFR-positive); experiment: Saturation binding study, NCI-H460 cells; parameters: species or system human; settings: 37°C, 1 h
Method: NCI-H460 and SW620 cells were cultured in a humidified atmosphere with 5% carbon dioxide at 37°C. The cells were maintained in Dulbecco modified Eagle medium supplemented with 10% fetal bovine serum, streptomycin (100 μg/ml), and penicillin (100 U/ml). The cells were used for experiments and studies once about 80% confluence had been reached.
The binding affinities of Tc-99m SYPIPDT-ECG-TAMRA for NCI-H460 and SW620 cells were evaluated by saturation binding studies as described previously. Briefly, NCI-H460 and SW620 cells were plated into 96-well plates at a density of 1 × 10^4 cells/well and cultured overnight. Cells were washed twice (5 min each) using ice-cold binding buffer (25 mM HEPES and 1% bovine serum albumin). A concentration gradient (0–2,000 nM) of Tc-99m SYPIPDT-ECG-TAMRA was added to the wells and the cells were maintained at 37°C for 1 h. The total volume of each well was 200 μl. After cells were washed twice using ice-cold binding buffer, the cells of each well were obtained for gamma counting. Radioactivities of collected cells were measured using a 1480 Wizard 3 gamma counter (PerkinElmer Life and Analytical Sciences, Wallingford, CT, USA). The binding affinity value (Kd) was calculated by non-linear regression models of GraphPad Prism software version 5.03 (GraphPad Software, La Jolla, CA, USA). Each data point is the average value of four determinations.

[2] = tested on: NCI-H460 and SW620 tumor tissue; experiment: Confocal microscopy with immunohistochemical staining of tumor tissue; format: in vivo, mice; settings: frozen tumor slices
Method: After the ex vivo imaging study, tumor tissues were snap-frozen in liquid nitrogen. Frozen tumor tissues were cut into slices (10 μm in thickness). After drying at room temperature, slices were fixed with ice-cold acetone for 10 min and then air dried at room temperature for 20 min. Tumor sections were maintained with 5% goat serum for 30 min at room temperature for blocking of nonspecific binding. Then, tumor sections were stained with anti-human wtEGFR antibody (cat. 4267S; Cell Signaling Technology, Danvers, MA, USA) for 1 h at room temperature. After being rinsed with PBS buffer, tumor slides were incubated with Alexa Fluor® 488-conjugated goat anti-rabbit secondary antibody (cat. 111-545-003, 1:100 dilution; Jackson Immuno Research Inc., West Grove, PA, USA). After being washed three times with PBS, tumor slides covered using Prolong® Gold Antifade Reagent with 4’,6-diamidino-2-phenylindole (DAPI; Invitrogen, Carlsbad, CA, USA) and closed with cover glasses. Confocal microscopic study was performed using a FV1200 confocal microscope (Olympus) with a 60× oil immersion lens.

[3] = tested on: mice bearing NCI-H460 and SW620 tumors
Method: (§2) Six-week-old female homozygous athymic BALB/c nu/nu mice (weighing 16–18 g) were purchased from Damul Science (Daejeon, Korea) and kept in cages. They were provided free access to food and tap water. After one week of adaptation to laboratory conditions, the mice were subcutaneously inoculated with 1 × 10^7 NCI-H460 (wtEGFR-positive) and SW620 (wtEGFR-negative, as an internal reference) cells (in 0.1 ml PBS) in both sides of the anterior chest region, respectively. The tumors were allowed to grow to about 300 to 400 mm^3 in volume. Tumor volume was calculated using the formula: V (mm^3) = 0.5 × a × b^2, where a and b represent the long and perpendicular short diameters of the tumor by caliper measurements. Approximately 21 days after inoculation, gamma camera imaging and biodistribution studies were performed.
(§3) Following the in vivo gamma camera imaging study, mice were sacrificed by cervical dislocation after anesthesia by intraperitoneal injection of 100 mg/kg bodyweight ketamine (n = 5).
(§4) Tissues of tumors and selected organs were weighed and collected into pre-weighed gamma counter tubes. The radioactivity of the tissues were counted using a gamma counter (1480 Wizard 3; PerkinElmer Life and Analytical Sciences) and counts per minute were decay-corrected. Results are expressed as a percentage injected dose per gram of wet tissue (%ID/g). Total activities injected per animal were calculated by evaluating the difference between pre-injection syringe counts and remaining syringe counts after injection.

[4] = tested on: NCI-H460 cells (wtEGFR-positive); experiment: Cellular uptake using confocal microscopy, NCI-H460 cells; format: cell-based, human; settings: 200 nM, 37°C, 1 h, serum free medium
Method: (§1) NCI-H460 and SW620 cells (1 × 10^5 cells) were cultured on the top of a cover-slip slide for 24 h at 37°C. The medium was replaced with fresh serum free medium (500 μL) containing Tc-99m SYPIPDT-ECG-TAMRA (200 nM). Cells were then incubated at 37°C for 1 h. These cells were rinsed three times with phosphate-buffered saline (PBS). The cell were stained with anti-human wtEGFR antibody (cat. 4267S; Cell Signaling Technology, Danvers, MA, USA) and Alexa Fluor® 488-conjugated goat anti-rabbit secondary antibody (cat. 111-545-003, 1:100 dilution; Jackson Immuno Research Inc., West Grove, PA, USA). The slides were covered with fluorescent mounting medium (Dako, Glostrup, Denmark) and closed with cover glasses. The confocal microscopic study was performed with a FV1200 confocal microscope (Olympus, Pittsburgh, PA, USA) with a 100× oil immersion lens.

[5] = in vivo; settings: female, athymic BALB/c nu/nu, mouse, total radioactivity, Mean %ID/g (SD)
Method: as §2, §3, §4

[6] = tested on: mice bearing NCI-H460 and SW620 tumors; experiment: Ex vivo fluorescent imaging of excised organs and tumors; settings: excised tumors after in vivo gamma camera imaging, n = 5
Method: Exposure time was 2.0 s per image. The images were analyzed using the dedicated software.

[7] = Radiochemical stability in saline; format: physicochemical; settings: room temperature, silica capillary column radio-chromatography, mean ± SD, n = 3
Method: To evaluate the radiochemical stability of the Tc-99m peptide complex, the labeled complex (0.1 ml) was incubated with 1 ml of saline at room temperature and freshly collected human serum at 37°C. Samples were collected at 30 min and at 1, 3, and 24 h and were analyzed using capillary column with saline (Rf of Tc-99m SYPIPDT-ECG-TAMRA and free pertechnetate = 0.9–1.0; Rf of colloid = 0.0–0.1) and acetone (Rf of free pertechnetate = 0.9–1.0; Rf of Tc-99m SYPIPDT-ECG-TAMRA and colloid = 0.0–0.1) as mobile phases. All experiments were conducted in triplicate (n = 3).

[8] = tested on: EGFR; settings: concentration dependent; cited from earlier work
From the text: A major drawback of these imaging agents is their large size, which hinders efficient penetration into the targeted tissue and prevents rapid clearance from the non-targeted tissues. Therefore, efforts have been made to reduce the size of the targeting agents. Monoclonal antibody fragments such as Fab′, scFv, Affibody and Nanobody, have been investigated. However, the antibody fragments show reduced binding affinity for their target compared to the parental antibody, and their stability also decreases over time. In the present study, we tried to overcome these drawbacks by utiliz ...

[9] = tested on: SW620 cells (wtEGFR-negative); experiment: Cellular uptake using confocal microscopy, SW620 cells; format: cell-based, human; settings: 200 nM, 37°C, 1 h, serum free medium
Method: as §1

[10] = NCI-H460 tumor (wtEGFR-positive)

CC[C@H](C)[C@H](NC(=O)[C@@H]1CCCN1C(=O)[C@H](Cc1ccc(O)cc1)NC(=O)[C@@H](N)CO)C(=O)N1CCC[C@H]1C(=O)N[C@@H](CC(=O)O)C(=O)N[C@H](C(=O)NCC(=O)N[C@@H](Cc1c[nH]cn1)C(=O)N[C@@H](CCC(=O)O)C(=O)NCC(=O)N[C@@H](CCC(=O)O)C(=O)N[C@@H](CS)C(=O)NCC(=O)N[C@@H](CCCCNC(=O)c1ccc2c(c1)C(=O)OC21c2ccc(N(C)C)cc2Oc2cc(N(C)C)ccc21)C(=O)O)[C@@H](C)O [Tc-99m SYPIPDT-ECG-TAMRA, Tc-99m SYPIPDT-GHEG-ECG-K-tetramethylrhodamine, metal not drawn] (H-SYPIPDTGHEGECGK(5TAMRA)-OH)
Kd ([1]; 0-2,000 nM, gamma counting, non-linear regression, four determinations per point, read-out: binding affinity value (Kd) for NCI-H460 cells): 76.5 ± 15.8 nM
Bmax ([1]; NCI-H460 cells): 3652 ± 189 fmol/mg protein
fluorescence within NCI-H460 tumor tissue (confocal microscopy) ([2]; NCI-H460 tumor): significant
fluorescent activity of TAMRA in SW620 tumor tissue (confocal microscopy) ([2]; SW620 tumor): barely detected
tumor to normal muscle ratio of the %ID/g values ([3]; 1 h after injection): 2.45 ± 0.22
tumor to normal muscle ratio of the %ID/g values ([3]; 3 h after injection): 7.13 ± 2.00
fluorescence activity of TAMRA on cells (confocal microscopy) [4]: strong fluorescence activity
tissue uptake at 1 h ([5]; Blood): 3.22 %ID/g
tissue uptake at 3 h ([5]; Blood): 0.87 %ID/g
tissue uptake at 1 h ([5]; Colon): 1.11 %ID/g
tissue uptake at 3 h ([5]; Colon): 0.42 %ID/g
tissue uptake at 1 h ([5]; Heart): 1.43 %ID/g
tissue uptake at 3 h ([5]; Heart): 0.45 %ID/g
tissue uptake at 1 h ([5]; Kidneys): 21.1 %ID/g
tissue uptake at 3 h ([5]; Kidneys): 12.4 %ID/g
tissue uptake at 1 h ([5]; Liver): 1.9 %ID/g
tissue uptake at 3 h ([5]; Liver): 1.07 %ID/g
tissue uptake at 1 h ([5]; Lungs): 2.23 %ID/g
tissue uptake at 3 h ([5]; Lungs): 0.61 %ID/g
tissue uptake at 1 h ([5]; Muscles): 0.79 %ID/g
tissue uptake at 3 h ([5]; Muscles): 0.25 %ID/g
tissue uptake at 1 h [5, 10]: 1.91 %ID/g
tissue uptake at 3 h [5, 10]: 1.7 %ID/g
tissue uptake at 1 h ([5]; SW620 tumor (wtEGFR-negative)): 1.27 %ID/g
tissue uptake at 3 h ([5]; SW620 tumor (wtEGFR-negative)): 0.54 %ID/g
tissue uptake at 1 h ([5]; Stomach): 1.68 %ID/g
tissue uptake at 3 h ([5]; Stomach): 0.37 %ID/g
ex vivo fluorescent activity, NCI-H460 tumor versus SW620 tumor [6]: significantly higher fluorescent activity
intact percentage incubated in saline ([7]; 30 min, 0.1 ml complex in 1 ml): 95.1 ± 0.6%
intact percentage incubated in saline ([7]; 1 h): 94.7 ± 1.3%
intact percentage incubated in saline ([7]; 3 h): 93.9 ± 1.1%
intact percentage incubated in saline ([7]; 24 h): 92.1 ± 1.4%

SYPIPDT [small 7-mer peptide ligand for wild-type EGFR identified by phage display (Hamzeh-Mivehroud et al.)]
diminished the increased EGF-dependent phosphorylation of EGFR [8]: 44%

SYPIPDT-GHEG-ECG-K-tetramethylrhodamine [SYPIPDT-ECG-TAMRA, unlabeled precursor peptide with GHEG linker, ECG chelator and TAMRA dye]
fluorescence activity of TAMRA on cells (confocal microscopy) [4]: strong fluorescence activity
fluorescence activity of TAMRA on cells (confocal microscopy) [9]: barely detectable
